EC50 data for twelve molecules are collected here from US20250376505A1.

Broadly, the EC50 is the concentration needed to bring the measured effect to its halfway point.

Sequences and labels used below:
B1: D7P6 (antibody, V domains shown)
VH: EVQLLESGGGLVQPGGSLRLSCAASGFPFSSYAMSWVRQAPGKGLEWVSGITGSASGTYYADSVKGRFTISRDNSKNTLYLRMNSLRAEDTAVYYCAKEGAYSYDYWYFDLWGRGTLVTVSS
VL: EIVLTQSPGTLSLSPGERATLSCRASQSVSGSYLAWYQQKPGQTPRLLIYGASSRATGIPDRFSGSGSGTDFTLTINRLDPEDFGVYYCQQYGSLVTFGGGSKVEIK
B2: G5P1 (antibody, V domains shown)
VH: QVQLQESGPGLVKPSGTLSLTCTVSGGSIRNSYWSWIRQPPGKGLEWIGYIYYTGTTNSNPSLKSRVTISVHMSRNQISLKLNSVTPADTAVYYCAQGGGSGDLHYWGQGTLVTVSS
VL: NFMLTQPASVSGSPGQSITISCTGTRSDVGGYNYVSWYQQHPGKAPKLMIYDISSRPSGVSNRFSASKSGNTASLTISGLQAEDEADYYCISFATGYTWVFGGGTRLTVL
B3: E7P5 (antibody, V domains shown)
VH: QVQLQESGPGLVKPSETLSLTCTVSGGSIRNSYWSWIRQSPGKGLEWIGYIYYTGSTNSNPSLKSRLTVSVHMSQNQISLKLNSVTPADTAVYYCAQGGGSGDLHYWGQGTLVTVSS
VL: QSALTQPASVSGSPGQSITISCTGTRSDVGGYNYVSWYQQHPGKAPKLIIYDISSRPSGVSNRFSASKSGNTASLTISGLQAEDEADYYCISFATGYTWVFGGGTSLTVL
B4: B9P6 (antibody, V domains shown)
VH: EVQLVESGGGLVQPGGSLRLSCAASGFTFRSYTMDWVRQAPGKGLEWVSCISGSSNHKYYADSVRGRFTISRDNAKNSLFLQMNSLRAEDSAVYYCAREDDILTPLYGMDVWGPGTTVTVSS
VL: EIVLTQSPDTLSLSPGARATLSCRASQSVRSNYLAWYQQKPGQAPRLLIYGASSRATAIPDRFSGSGSGTDFTLTITRLEPEDFAVYYCHQYGSSPRTFGQGTKVEIK
B5: G11P1 (antibody, V domains shown)
VH: EVQLVESGGGLVQPGGSLRLSCAASGFTFRSYSMDWVRQAPGKGLEWVSYISGSSNQKYYTDSVRGRFTISRDNAKNSLFLQMNSLRAEDSAVYYCAREDDILTPLYGMDVWGPGTTVTVSS
VL: EIVLTQSPDTLSLSPGARATLSCRASQSVRSNYLAWYQQKPGQAPRLLIYGASSRATAIPDRFSGSGSGTDFTLTITRLEPEDFAVYYCHQYASSPRTFGQGTKVEIK
B6: B2P8 (antibody, V domains shown)
VH: QVQLQESGPGLVKPSETLSLTCTVSGGSIRNSYWSWIRQPPGKGLEWIGYIYYTGTTNSNPSLKSRVTISVHMSQNQISLKLNSVTPADTAVYYCAQGGGSGDLHYWGQGTLVTVSS
VL: EIVLTQSPDTLSLSPGARATLSCRASQSVRSNYLAWYQQKPGQAPRLLIYGASSRATAIPDRFSGSGSGTDFTLTITRLEPEDFAVYYCHQYASSPRTFGQGTKVEIK
B7: E11P6 (antibody, V domains shown)
VH: EVQLVESGGGLVQPGGSLRLSCAASGFTFRSYSMDWVRQAPGKGLEWVSYISGSSNQKYYTDSVRGRFTISRDNAKNSLFLQMNSLRAEDSAVYYCAREDDILTPLYGMDVWGPGTTVTVSS
VL: EIVLTQSPDTLSLSPGARATLSCRASQSVRSNYLAWYQQKPGQAPRLLIYGASSRATAIPDRFSGSGSGTDLTLTITRLEPEDFAVYYCHQYASSPRTFGQGTKVEIK
B8: B10P1 (antibody, V domains shown)
VH: EVQLSESGGGLVQPGGSLRLSCAASGFTFSSYAMSWVRQAPGKGLEWVSSLTGSGGSTYYRDSVKGRFTIFRDNSKKTLYMQMNSLRAEDTAVYYCAKEGAYSYDFWYFDLWGRGTLVTVSS
VL: EIVLTQSPGTLSLSPGERATLSCRASQTVSGNYLAWYQQKPGQSPSLLIYGASSRATGIPDRFTGSGSGTDFTLTISRLEPADFAVYYCQQYGRPLTFGGGTKVDIK
B9: C4P7 (antibody, V domains shown)
VH: EVQLLESGGGLVQPGGSLRLSCAASGFTFSSYAMSWVRQAPGKGLEWVSSLTGSGGSTYYRDSVKGRFTIFRDNSKKTLYMQMNSLRAEDTAVYYCAKEGAYSYDFWYFDLWGRGTLVTVSS
VL: EIVLTQSPGTLSLSPGERATLSCRASQTVSGNYLAWYQQKPGQSPSLLIYGASSRATGIPDRFTGSGSGTDFTLTISRLEPADFAVYYCQQYGRPLTFGGGTKVEIK
B10: C11P7 (antibody, V domains shown)
VH: EVQLVESGGGLVQPGGSLKLSCAASGFSLSNSEVHWVRQASGKGLEWIGRVRSRANRHATGYTESVNGRFTVSRDDSKNTASLQLESLKIEDTAVYYCTGVRGVISRYFAMDVWGQGTTVTVSS
VL: QSALTQPASVSGSPGQSITISCTGTSSDVGAYNYVSWYRLRPGKDPHLIIYDVSHRPAGVSNRFSGSKSGNTASLTISGLQAEDEDEYYCCSYAHRGTPLFGGGTKLTVL
B11: B8P7 (antibody, V domains shown)
VH: QVQLQESGPGLVRPSETLSLTCTVSGGSISPYYWNWIRQPPGKGLEWIGYIYYSGNTKYNPSLKSRVTISVDTSKNQFSLKLSSVSAADTAVYYCARDSCSGTCYLGDNWFDPWGQGTLVTVSS
VL: QSVLTQPPSVSGAPGQRVTISCTGSSSNIGANNDVHWYQHLPGTAPKLLIYGNNHRPSGVPDRFSGSKSGTSASLAITGLQAEDEADYYCQSYDSSLSTSKVFGGGTKLTVL
B12: C4P6 (antibody, V domains shown)
VH: QVQLQESGPGLVRPSETLSLTCTVSGGSISPYYWNWIRQPPGKGLEWIGYIYYSGNTKYNPSLKSRVTISVDTSKNQFSLKLSSVSAADTAVYYCARDSCSGTCYLGGNWFDPWGQGTLVTVSS
VL: QSVLTQPPSVSGAPGQRVTISCTGSSSNIGANNDVHWYQHLPGTAPKLLIYGNNHRPSGVPDRFSGSKSGTSASLAITGLQAEDEADYYCQSYDSSLSTSKVFGGGTKLTVL

Sequence of VP1 pentamer of BKV genotype I (truncated VP1, residues 31 to 301, Dunlop sequence with Cys 104 replaced by Ser) (BK virus genotype I (Dunlop)) (P03088 31-301): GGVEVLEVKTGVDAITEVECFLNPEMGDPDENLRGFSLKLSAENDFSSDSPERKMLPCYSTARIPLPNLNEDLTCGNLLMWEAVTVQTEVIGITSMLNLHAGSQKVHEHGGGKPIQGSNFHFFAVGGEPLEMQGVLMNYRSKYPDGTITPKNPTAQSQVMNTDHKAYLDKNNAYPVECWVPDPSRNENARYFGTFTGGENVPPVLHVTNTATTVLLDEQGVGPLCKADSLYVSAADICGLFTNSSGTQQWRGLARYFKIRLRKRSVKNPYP

The assay addresses VP1 pentamer of BKV genotype I (truncated VP1, residues 31 to 301, Dunlop sequence with Cys 104 replaced by Ser) (BK virus genotype I (Dunlop)) (UniProt P03088). The experiment in a line: ELISA, coated VP1 pentamer. For orientation: In an ELISA, binding on a coated surface is turned into a signal by an enzyme label.
Consider B1, for which the EC50 was 6 µg/mL.

B2 had an EC50 of 7 µg/mL.

B3 yielded an EC50 of 0.15 µg/mL.

In turn, B4 returned an EC50 of 0.12 µg/mL.

B5 yielded an EC50 of 0.7 µg/mL.

With B6, the EC50 is 10 µg/mL.

Regarding B7, the EC50 was 0.6 µg/mL. This EC50 lies about 17-fold lower than the previous one.

Turning to B8, the EC50 was found to be 7 µg/mL.

In turn, B9 showed an EC50 of 5 µg/mL. This EC50 and that of the molecule before are within 1.5-fold of each other.

The molecule B10 returned an EC50 of 6 µg/mL.

B11 had an EC50 of 0.05 µg/mL.

Regarding B12, the EC50 is 1.5 µg/mL.
